Reference: PMC12153270

Tested on: MBP-ComGC (soluble globular head) (Streptococcus sanguinis 2908?)
Test: EMSA
Settings: 2.5 mM Mg2+; 25 mM Tris-HCl pH 8, 2.5 mM MgCl2, 50 mM NaCl, room temperature 30 min, 120 ng pUC19 in 10 uL; 0.8% agarose in TAE

pUC19 plasmid
binding: > 10 µM
